Measurements reported in patent publication US20180346604A1.

What was measured:
[1] = target: Biotin-GCN4 peptide (yeast); experiment: SPR (Biacore 3000), Biotin-GCN4 peptide captured on immobilised streptavidin, Fab-scFv injected, 1:1 binding model
[2] = target: Biotin-GCN4 peptide (yeast); experiment: SPR, Biacore 3000, 25 C; biotin-GCN4 peptide captured on streptavidin CM5 chip, Fab-scFv as analyte from 30 nM, 1:1 model

B1: Fab-scFv (anti-GCN4 52SR4 scFv fused to a Fab, generated in-house) (Fab, part only; not given: carrier Fab and its linker, not shown: another chain or arm of the molecule; large carriers; small tags and cut ends)
scFv: DAVVTQESALTSSPGETVTLTCRSSTGAVTTSNYASWVQEKPDHLFTGLIGGTNNRAPGVPARFSGSLIGDKAALTITGAQTEDEAIYFCVLWYSDHWVFGCGTKLTVLGGGGGSGGGGSGGGGSGGGGSDVQLQQSGPGLVAPSQSLSITCTVSGFLLTDYGVNWVRQSPGKCLEWLGVIWGDGITDYNSALKSRLSVTKDNSKSQVFLKMNSLQSGDSARYYCVTGLFDYWGQGTTLTVSSAAAHHHHHHEQKLISEEDL
B1 showed a koff [1] of 0.00027 s⁻¹, a kon [1] of 510000 M⁻¹ s⁻¹ and a Kd [2] of 0.516 nM.
